For orientation: Km means the concentration of substrate that gives half-maximal velocity. A word on the kcat: it is the number of substrate molecules converted per active site and unit of time at saturation.

Details in all cases: concentrated culture medium, enzyme titrated, GC-MS assay at pH 8.0, 25 mM Tris-HCl, 200 µM substrate, BSA, 5% ethanol
Substrate in data set [1]: CCCOC(=O)CCC
Put plainly: cells, lysate or membranes.

Substrate in data set [2]: CCCCCCCCOC(=O)CC
The experiment in a line: competitive inhibition of 4-nitrophenyl acetate hydrolysis (Ki taken as Km); kcat from GC-MS substrate loss. Type of data set: biochemical, Drosophila melanogaster.
Source text: (§1) competitive inhibition of 4-nitrophenyl acetate hydrolysis (Ki taken as Km); kcat from GC-MS substrate loss on EST-6 (EST-6^F), esterase 6

Substrate in data set [3]: CCCCCOC(C)=O
Source text: as §1
Described as above. Type of data set: biochemical, Drosophila melanogaster.

B1: EST-6 (EST-6^F), esterase 6 (Drosophila melanogaster) (protein)
chain: SDTDDPLLVQLPQGKLRGRDNGSYYSYESIPYAEPPTGDLRFEAPEPYKQKWSDIFDATKTPVACLQWDQFTPGANKLVGEEDCLTVSVYKPKNSKRNSFPVVAHIHGGAFMFGAAWQNGHENVMREGKFILVKISYRLGPLGFVSTGDRDLPGNYGLKDQRLALKWIKQNIASFGGEPQNVLLVGHSAGGASVHLQMLREDFGQLARAAFSFSGNALDPWVIQKGARGRAFELGRNVGCESAEDSTSLKKCLKSKPASELVTAVRKFLIFSYVPFAPFSPVLEPSDAPDAIITQDPRDVIKSGKFGQVPWAVSYVTEDGGYNAALLLKERKSGIVIDDLNERWLELAPYLLFYRDTKTKKDMDDYSRKIKQEYIGNQRFDIESYSELQRLFTDILFKNSTQESLDLHRKYGKSPAYAYVYDNPAEKGIAQVLANRTDYDFGTVHGDDYFLIFENFVRDVEMRPDEQIISRNFINMLADFASSDNGSLKYGECDFKDNVGSEKFQLLAIYIDGCQNRQHVEFP
notes: natural allele expressed behind its own signal peptide (secreted) with BacuVance baculovirus system (Genscript); no tag told
As for B1, the Michaelis constant (Km) in data set [1] was 18.3 mM; in data set [2], 3.16 mM; in data set [3], 2.93 mM. Moreover, the kcat was 1670 s⁻¹ in data set [1], 4520 ± 1680 s⁻¹ in data set [2] and 969 ± 215 s⁻¹ in data set [3].

Values taken from PMC4633494, “An antennal carboxylesterase from Drosophila melanogaster, esterase 6, is a candidate odorant-degrading enzyme toward food odorants” (Frontiers in Physiology, 2015).
